# According to patent US20210069342A1 (LEGOCHEM BIOSCIENCES, published 2021):
# B1: anti-ROR1 IgG antibody C2E3 (antibody, V domains shown)
# VH: EVQLLESGGGLVQPGGSLRLSCAASGFTFSNYAMSWVRQAPGKGLEWVSSISHNSGSTYYADSVKGRFTISRDNSKNTLYLQMNSLRAEDTAVYYCAKFISARKSLGRSYSNGMDVWGQGTLVTVSS
# VL: QSVLTQPPSASGTPGQRVTISCTGSSSNIGSNDVTWYQQLPGTAPKLLIYADSKRPSGVPDRFSGSKSGTSASLAISGLRSEDEADYYCGTWDYSLSGYVFGGGTKLTVLG
# notes: Full IgG form (human IgG1 constant region, lambda light chain), expressed in CHO-S cells
# Columns and labels:
# [1] = molecular target: T1, human ROR1 expressed on the cell surface (human, UniProt Q01973 30-937); assay: flow cytometry on MKN-28 cells (gastric cancer), C2E3 IgG, FITC anti-human Fc detection
# T1 construct: whole, on cells; also called cell surface-expressed ROR1 antigen; ROR1 on JeKo-1, Mino, CHO-human ROR1, MC38-human ROR1 and other cancer cell lines
# Experimental: (§1) FACS analysis (FACSCalibur, BD Biosciences) was used to analyze the binding of the anti-ROR1 antibody of the present invention to ROR1 in the above cell lines.
# (§2) Specifically, the respective cell lines were dissociated and washed in PBS, then the numbers of cells were counted and adjusted to 2×10⁵ cells/200 PBS. Then, they were treated with 10 /mL of the antibody of clone name C2E3 of the ROR1 monoclonal antibodies prepared in Embodiment 3, and reacted for 1 hour at 4° C. After the reaction, the cells were washed in PBS, then FITC-marked constant region (Fc) specific antibody (Goat anti-human IgG FITC conjugate, Fc specific, Sigma, F9512, concentration 20 mg/ml) was suspended in 2 /1×10⁵ cells/200 PBS and reacted for 1 hour at 4° C. After reacting, the cells were washed with PBS and analyzed with the FACSCalibur equipment. The negative control was only treated with FITC-marked constant region (Fc) specific antibody. To compare the degree of ROR1 expression among the respective cancer cell lines, the quotient of dividing the shifted readings for the experimental group treated with the ROR1 monoclonal antibody (C2E3) of the present invention by the shifted readings for the control group (MFI Ratio: MFI of anti-ROR1/MFI or 2nd Ab) is indicated.
# [2] = molecular target: T1, human ROR1 expressed on the cell surface; assay: flow cytometry on MCF7 cells (breast cancer; the text calls MCF7 a cell line which does not express ROR1), C2E3 IgG, FITC anti-human Fc detection
# Experimental: as §1, §2
# [3] = molecular target: T1, human ROR1 expressed on the cell surface; assay: flow cytometry on HCT116 cells (colon cancer), C2E3 IgG, FITC anti-human Fc detection
# Experimental: as §1, §2
# [4] = molecular target: T1, human ROR1 expressed on the cell surface; assay: flow cytometry on NCI-N87 cells (gastric cancer), C2E3 IgG, FITC anti-human Fc detection
# Experimental: as §1, §2
# [5] = molecular target: T1, human ROR1 expressed on the cell surface; assay: flow cytometry on JeKo-1 cells (MCL), C2E3 IgG, FITC anti-human Fc detection
# Experimental: as §1, §2
# [6] = molecular target: T1, human ROR1 expressed on the cell surface; assay: flow cytometry on AGS cells (gastric cancer), C2E3 IgG, FITC anti-human Fc detection
# Experimental: as §1, §2
# [7] = molecular target: T1, human ROR1 expressed on the cell surface; assay: flow cytometry on HT29 cells (colon cancer), C2E3 IgG, FITC anti-human Fc detection
# Experimental: as §1, §2
# [8] = molecular target: T1, human ROR1 expressed on the cell surface; assay: flow cytometry on Mino cells (MCL), C2E3 IgG, FITC anti-human Fc detection
# Experimental: as §1, §2
# [9] = molecular target: T1, human ROR1 expressed on the cell surface; assay: flow cytometry on Calu-6 cells (lung cancer), C2E3 IgG, FITC anti-human Fc detection
# Experimental: as §1, §2
# [10] = molecular target: T1, human ROR1 expressed on the cell surface; assay: flow cytometry on HCC1806 cells (breast cancer), C2E3 IgG, FITC anti-human Fc detection
# Experimental: as §1, §2
# [11] = molecular target: T1, human ROR1 expressed on the cell surface; assay: flow cytometry on DLD-1 cells (colon cancer), C2E3 IgG, FITC anti-human Fc detection
# Experimental: as §1, §2
# [12] = molecular target: T1, human ROR1 expressed on the cell surface; assay: flow cytometry on BT474 cells (breast cancer), C2E3 IgG, FITC anti-human Fc detection
# Experimental: as §1, §2
# [13] = molecular target: T1, human ROR1 expressed on the cell surface; assay: flow cytometry on A549 cells (lung cancer), C2E3 IgG, FITC anti-human Fc detection
# Experimental: as §1, §2
# [14] = molecular target: T2, recombinant human ROR1-His (Sino Biological, 13968-H08H) (human, UniProt Q01973 30-406); assay: ELISA, wells coated with human ROR1 protein (sheet: 'human ROR1'; text: ROR1-Fc or ROR1-His), IgG titrated, HRP anti-Fab detection, OD (450-650nm)
# T2 construct: extracellular domain; Bought protein; also called ROR1-HIS protein; not shown: His tag
# Experimental: Anti-ROR1 antibody antigen binding affinity was assessed using an ELISA-based solution binding assay. Specifically, a 96-well microtiter plate (Nunc-Immuno Plates), NUNC) was coated for 16 hours at 4° C. with the ROR1 protein described below at a concentration of 1 in PBS solution, and non-specific binding sites were blocked for 2 hours with 3% BSA (bovine serum albumin). Here, the ROR1 protein used was, in the case of human ROR1, the ROR1-Fc or recombinant human ROR1-His (Sino Biological, 13968-H08H) of Embodiment 1. The ROR1-His used in ELISA, as stated in the above sentence, was a protein from the Sino Biological company (13968-H08H), and the ROR1-His of Embodiment 1 or recombinant mouse ROR1 protein was used (Acrobiosystems, RO1-M5221-100 )
# Subsequently, the anti-ROR1 antibodies prepared in Embodiment 3 were added at the concentrations stated in FIG. 2 to a 96-well microtiter plate, and binding capacity was analyzed using ELISA as follows. Specifically, after incubating for 2 hours, the plate was washed 5 times with PBS containing 0.05% Tween 20, then HRP-conjugated Fab multiclonal antibody reagent (Perce, 31414) was diluted to 1:10,000 and placed in the washed microtiter plate. After reacting for 1 hour at 37° C., the ROR1 antibodies bonded to the plate were detected. After the reaction, color development was performed using TMB (Tetramethylbenzidine, Sigma, T0440). The enzymatic reaction was stopped using 0.5 mol/L sulfuric acid, and absorbance at 450 nm and 650 nm was measured (450 nm-650 nm) using a micro plate reader (Molecular Device)
# T1 sequence (Q01973 30-937): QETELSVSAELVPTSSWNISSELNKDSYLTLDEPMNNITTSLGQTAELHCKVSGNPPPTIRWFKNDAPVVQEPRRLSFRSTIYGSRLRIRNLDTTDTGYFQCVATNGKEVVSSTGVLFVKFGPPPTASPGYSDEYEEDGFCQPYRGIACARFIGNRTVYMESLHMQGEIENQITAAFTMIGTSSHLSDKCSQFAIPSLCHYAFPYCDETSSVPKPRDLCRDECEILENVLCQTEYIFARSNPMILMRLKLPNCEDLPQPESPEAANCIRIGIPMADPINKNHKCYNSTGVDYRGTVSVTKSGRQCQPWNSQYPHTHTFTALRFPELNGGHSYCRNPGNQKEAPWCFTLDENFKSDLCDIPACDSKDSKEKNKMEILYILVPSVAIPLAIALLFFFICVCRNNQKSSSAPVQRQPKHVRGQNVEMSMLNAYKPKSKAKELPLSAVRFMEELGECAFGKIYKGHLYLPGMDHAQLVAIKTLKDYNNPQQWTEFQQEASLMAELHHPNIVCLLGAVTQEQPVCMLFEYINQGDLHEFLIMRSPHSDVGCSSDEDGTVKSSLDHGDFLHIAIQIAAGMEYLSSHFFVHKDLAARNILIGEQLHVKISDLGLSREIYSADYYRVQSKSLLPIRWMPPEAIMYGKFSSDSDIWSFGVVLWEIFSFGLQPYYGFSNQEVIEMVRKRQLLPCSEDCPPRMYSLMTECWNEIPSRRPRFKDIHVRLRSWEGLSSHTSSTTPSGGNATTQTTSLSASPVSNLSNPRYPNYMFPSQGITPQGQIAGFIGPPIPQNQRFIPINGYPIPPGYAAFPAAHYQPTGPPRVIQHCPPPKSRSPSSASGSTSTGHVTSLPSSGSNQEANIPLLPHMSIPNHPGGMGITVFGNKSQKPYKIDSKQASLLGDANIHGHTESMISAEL
# T2 sequence (Q01973 30-406): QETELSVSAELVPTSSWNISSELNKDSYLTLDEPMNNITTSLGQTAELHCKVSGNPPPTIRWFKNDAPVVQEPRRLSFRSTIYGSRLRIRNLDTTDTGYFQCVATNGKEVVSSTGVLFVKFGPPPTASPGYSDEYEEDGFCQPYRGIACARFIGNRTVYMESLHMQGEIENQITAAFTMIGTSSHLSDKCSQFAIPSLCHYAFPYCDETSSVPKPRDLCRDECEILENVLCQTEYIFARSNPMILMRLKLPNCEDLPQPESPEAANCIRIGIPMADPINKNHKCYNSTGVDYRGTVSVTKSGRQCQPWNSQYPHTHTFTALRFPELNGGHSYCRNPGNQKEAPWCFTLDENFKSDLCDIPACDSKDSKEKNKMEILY
binder,measurement,setting,value
B1,Mean Fold Ratio (MFI of anti-ROR1 / MFI of 2nd Ab),[1],4.9
same,Mean Fold Ratio (MFI of anti-ROR1 / MFI of 2nd Ab),[2],1.1
same,Mean Fold Ratio (MFI of anti-ROR1 / MFI of 2nd Ab),[3],18
same,Mean Fold Ratio (MFI of anti-ROR1 / MFI of 2nd Ab),[4],11.8
same,Mean Fold Ratio (MFI of anti-ROR1 / MFI of 2nd Ab),[5],4
same,Mean Fold Ratio (MFI of anti-ROR1 / MFI of 2nd Ab),[6],12.3
same,Mean Fold Ratio (MFI of anti-ROR1 / MFI of 2nd Ab),[7],3.9
same,Mean Fold Ratio (MFI of anti-ROR1 / MFI of 2nd Ab),[8],7.2
same,Mean Fold Ratio (MFI of anti-ROR1 / MFI of 2nd Ab),[9],3.3
same,Mean Fold Ratio (MFI of anti-ROR1 / MFI of 2nd Ab),[10],2.3
same,Mean Fold Ratio (MFI of anti-ROR1 / MFI of 2nd Ab),[11],17.6
same,Mean Fold Ratio (MFI of anti-ROR1 / MFI of 2nd Ab),[12],1.7
same,Mean Fold Ratio (MFI of anti-ROR1 / MFI of 2nd Ab),[13],6
same,EC50 (read off the curve),[14],~0.2 nM
